From article PMC7050210 (Nature, 2020)
Where two headings read alike, the source gives them in different places. Non-standard residues stand in square brackets, D forms with d. No end group written: not given here. pS = N[C@@H](COP(=O)(O)O)C(=O)O

T1: β-TRCP1 (monomeric form, from residue 175 to C-terminus) (human, UniProt Q9Y297 175-605)
T1 sequence: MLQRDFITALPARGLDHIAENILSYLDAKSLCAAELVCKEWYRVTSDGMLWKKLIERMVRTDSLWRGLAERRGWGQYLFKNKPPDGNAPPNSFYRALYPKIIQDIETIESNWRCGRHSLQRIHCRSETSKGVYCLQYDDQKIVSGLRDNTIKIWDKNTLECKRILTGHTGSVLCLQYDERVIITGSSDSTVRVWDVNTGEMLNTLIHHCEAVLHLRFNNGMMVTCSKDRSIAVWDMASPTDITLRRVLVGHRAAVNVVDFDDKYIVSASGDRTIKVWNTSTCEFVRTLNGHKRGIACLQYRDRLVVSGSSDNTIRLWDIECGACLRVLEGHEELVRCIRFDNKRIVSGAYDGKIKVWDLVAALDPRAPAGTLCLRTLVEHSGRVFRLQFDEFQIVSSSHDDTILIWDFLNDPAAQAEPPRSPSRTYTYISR


Legend:
[1] = target: T1, β-TRCP1 (monomeric form, from residue …); test: cryo-EM structure
[2] = target: T1, β-TRCP1 (monomeric form, from residue …); test: cryo-EM structure; remark: listed apart in the source

| binding result [1] | binding result [2] | Binder |
| --- | --- | --- |
| binds | – | CKKERLLDDRHDSGLDSMKDEE [IκBα-derived substrate peptide with N-terminal Cys (cryo EM peptide)] |
| – | binds | KKERLLDDRHD[pS]GLD[pS]MKDEE [IκBα-derived phosphopeptide KKERLLDDRHD(pS)GLD(pS)MKDEE] |
